Reference: doi:10.1101/2024.06.05.597502v1

Substrate: O=[N+]([O-])c1ccc(O[C@@H]2O[C@H](CO)[C@@H](O)[C@H](O)[C@H]2O)cc1
Assay: purified protein
Details: 50 mM sodium acetate pH 5.5, 55 °C

B1: AoBgl (Aspergillus oryzae exo-β-(1,3) glucanase) (Aspergillus oryzae RIB40) (protein)
chain: SRLDPRASSFDYNGEKVRGVNLGGWLVLEPWITPSIFDAAGAEAVDEWSLTKILGKEEAEARLSAHWKSFVSAGDFQRMADAGLNHVRIPIGYWALGPLEGDPYVDGQLEYLDKAVEWAGAAGLKVLIDLHGAPGSQNGFDNSGRRGAIQWQQGDTVEQTLDAFDLLAERYLGSDTVAAIEAINEPNIPGGVDQGKLQEYYGSVYGIVNKYNAGTSVVYGDGFLPVESWNGFKTEGSKVVMDTHHYHMFDNGLIAMDIDSHIDAVCQFAHQHLEASDKPVIVGEWTGAVTDCAKYLNGKGNGARYDGSYAADKAIGDCSSLATGFVSKLSDEERSDMRRFIEAQLDAFELKSGWVFWTWKTEGAPGWDMSDLLEAGVFPTSPDDREFPKQC
Km: 5.78 mM
